From PMC4338599 come the findings set out here.

The series deals with Ku70-Ku80 heterodimer (Ku);PAXX WT (PAXX1-204, C9orf142) (human?;human, UniProt P12956;P13010;Q9BUH6 1-609;1-732;1-204, |). Briefly: EMSA.
Ku70-Ku80 heterodimer (Ku);PAXX WT (PAXX1-204, C9orf142), sequence (P12956 whole entry, chain 1 of 3): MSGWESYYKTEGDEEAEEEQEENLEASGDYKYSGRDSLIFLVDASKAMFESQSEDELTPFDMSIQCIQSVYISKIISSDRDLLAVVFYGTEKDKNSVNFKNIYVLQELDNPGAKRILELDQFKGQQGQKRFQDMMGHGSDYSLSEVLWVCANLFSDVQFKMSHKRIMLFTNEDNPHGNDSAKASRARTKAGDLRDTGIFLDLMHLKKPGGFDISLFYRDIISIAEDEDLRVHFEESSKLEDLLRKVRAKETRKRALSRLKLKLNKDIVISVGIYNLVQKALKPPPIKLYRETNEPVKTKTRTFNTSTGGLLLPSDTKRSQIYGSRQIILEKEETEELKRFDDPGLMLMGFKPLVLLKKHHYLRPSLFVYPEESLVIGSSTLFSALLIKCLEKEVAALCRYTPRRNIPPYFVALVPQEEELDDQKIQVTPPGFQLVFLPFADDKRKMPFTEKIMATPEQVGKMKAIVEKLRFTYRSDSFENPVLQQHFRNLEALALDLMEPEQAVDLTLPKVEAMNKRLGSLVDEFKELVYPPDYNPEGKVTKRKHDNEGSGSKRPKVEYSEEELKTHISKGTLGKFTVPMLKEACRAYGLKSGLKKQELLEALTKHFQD
Ku70-Ku80 heterodimer (Ku);PAXX WT (PAXX1-204, C9orf142), sequence (P13010 whole entry, chain 2 of 3): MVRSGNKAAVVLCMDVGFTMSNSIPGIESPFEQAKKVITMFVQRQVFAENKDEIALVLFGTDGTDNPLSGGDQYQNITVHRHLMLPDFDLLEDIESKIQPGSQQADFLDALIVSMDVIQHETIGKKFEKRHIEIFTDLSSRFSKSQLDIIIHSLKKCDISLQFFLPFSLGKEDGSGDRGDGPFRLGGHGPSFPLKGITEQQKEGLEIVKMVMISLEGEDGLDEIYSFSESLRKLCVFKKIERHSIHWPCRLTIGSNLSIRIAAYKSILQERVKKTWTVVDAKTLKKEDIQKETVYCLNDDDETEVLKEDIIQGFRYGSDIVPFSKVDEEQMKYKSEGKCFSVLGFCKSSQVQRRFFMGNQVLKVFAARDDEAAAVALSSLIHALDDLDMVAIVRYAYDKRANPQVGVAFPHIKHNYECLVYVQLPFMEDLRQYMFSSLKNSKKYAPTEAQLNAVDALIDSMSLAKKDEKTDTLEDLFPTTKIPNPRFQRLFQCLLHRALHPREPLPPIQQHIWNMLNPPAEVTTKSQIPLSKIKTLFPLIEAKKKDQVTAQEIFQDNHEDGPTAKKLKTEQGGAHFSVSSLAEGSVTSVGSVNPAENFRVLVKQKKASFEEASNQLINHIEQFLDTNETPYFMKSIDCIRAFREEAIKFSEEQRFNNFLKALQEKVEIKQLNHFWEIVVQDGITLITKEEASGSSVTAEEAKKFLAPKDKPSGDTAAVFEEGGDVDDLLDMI
Ku70-Ku80 heterodimer (Ku);PAXX WT (PAXX1-204, C9orf142), sequence (Q9BUH6 whole entry, chain 3 of 3): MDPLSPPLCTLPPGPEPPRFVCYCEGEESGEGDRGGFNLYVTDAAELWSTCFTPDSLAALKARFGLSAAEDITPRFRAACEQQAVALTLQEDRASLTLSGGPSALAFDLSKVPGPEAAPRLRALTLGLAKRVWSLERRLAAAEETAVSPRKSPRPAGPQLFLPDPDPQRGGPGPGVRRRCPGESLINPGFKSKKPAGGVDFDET

B1: 50-bp 6-FAM dsDNA (dsDNA)
DNA 1: TAAATGCCAATGCTGCTGATACGTACTCGGACTGATTCGGAACTGTAACG
DNA 2: CGTTACAGTTCCGAATCAGTCCGAGTACGTATCAGCAGCATTGGCATTTA
In the case of B1, the binding result is listed as “binds”.
